Literature values as cited in article PMC3086721.

Target: ubiquitin (Homo sapiens) (UniProt P0CG47)

E2-25K UBA, sequence (P61086 157-200): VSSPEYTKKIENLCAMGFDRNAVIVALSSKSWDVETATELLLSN

For E2-25K UBA (from UniProt P61086), the Kd is given as 400 µM.
